{
  "source": "patent US20110300156A1",
  "about": "(Genmab, published 2011)",
  "binders": {"B1": {"name": "anti-TF HuMab 109 (antibody, V domains shown)", "VH": "QVQLVESGGGVVQPGRSLRLSCPASGFTFSIYAMHWVRQAPGKGLEWVAVVSNDGYNKYYADSVKGRFTISRDNSKDTLYLQMNSLRAEDTAVYYCARDGQLGRGYFDYWGQGTLVTVSS", "VL": "EIVLTQSPATLSLSPGERAILSCRASQSVSSYLAWYQQKPGQAPRLLIYDASNRATGIPARFSGSGSGTDFTLTISSLEPEDFAVYYCQQRSNWPLTFGGGTKVEIK", "notes": "Human monoclonal antibody from HuMab mice"}, "B2": {"name": "anti-TF HuMab 013 (antibody, V domains shown)", "VH": "EVQLVQSGAEVKKPGESLKISCKGSGYSFTSYWIGWVRQMPGKGLEWMGIIYPGDSDTRYSPSFQGQVTISADKSISTAYLQWSSLKASDTAMYYCARIHRGAGYSSSWPGAFDIWGQGTMVTVSS", "VL": "DIQMTQSPSSLSASVGDRVTITCRASQGISRWLAWYQQKPEKAPKSLIYAASSLQSGVPSRFSGSGSGTDFTLTISSLQPEDFATYYCQQYDSDPITFGQGTRLEIK", "notes": "Human monoclonal antibody from HuMab mice; also called HuMab-TF-13"}},
  "key": {"[1]": {"biological_target": "T1, human tissue factor (TF), membrane-bound on cells (human, UniProt P13726 33-295)", "T1 construct": "whole, on cells; also called cellular TF", "test": "FACS, Bx-PC3 cells", "method_in_brief": "(§1)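 Binding curves came from non-linear sigmoidal variable-slope fits of flow cytometry signal. Serially diluted HuMab was applied for 30 minutes on ice in PBS buffer containing 0.1% BSA and 0.02% Na-azide, with PE anti-human IgGFc secondary added after washing, again 30 minutes on ice, dark.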"}, "[2]": {"biological_target": "T1, human tissue factor (TF), …", "test": "FACS, MDA-MB-231 cells", "method_in_brief": "as §1"}, "[3]": {"biological_target": "T1, human tissue factor (TF), …", "test": "cell-based or functional assay"}, "[4]": {"biological_target": "T1, human tissue factor (TF), …", "test": "cell-based or functional assay", "remark": "listed apart in the source"}, "TF (Innovin) [5]": {"biological_target": "T2, TF (Innovin) (UniProt P13726 33-295, limits assumed)", "test": "cell-based or functional assay"}, "TF (Innovin) [6]": {"biological_target": "T2, TF (Innovin)", "test": "cell-based or functional assay", "remark": "listed apart in the source"}, "[7]": {"biological_target": "T1, human tissue factor (TF), …", "test": "FACS, MDA-MB-231 cells, 30 µg/mL", "method_in_brief": "as §1"}, "[8]": {"biological_target": "T3, TFECDHis (extracellular domain of tissue factor, amino acid 1-251, with C-terminal His tag) (human, UniProt P13726 33-251)", "T3 construct": "range 1-251; The stated range 1-251 starts at residue 1 of NP-001984; also called extracellular domain of TF", "test": "ELISA, coated TFECDHis, mean of 3", "method_in_brief": "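Plates coated overnight at +4° C with 0.5 μg/mL TFECDHis in PBS pH 7.4, blocked with 2% chicken serum. Serially diluted HuMabs bound 1 h at RT with shaking, detected with HRP anti-human IgG. Binding curves fitted by sigmoidal dose-response with variable slope; anti-KLH HuMab served as negative control.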"}, "[9]": {"biological_target": "T1, human tissue factor (TF), …", "test": "FACS, TF transfected CHO cells (S1015-TF)", "method_in_brief": "as §1"}, "[10]": {"biological_target": "T1, human tissue factor (TF), …", "test": "FACS, TF transfected CHO cells (S1015-TF), 7.5 µg/mL", "method_in_brief": "as §1"}, "[11]": {"biological_target": "T3, TFECDHis (extracellular domain of …)", "test": "SPR BIAcore 3000, HuMab immobilized, TFECDHis analyte", "method_in_brief": "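HuMab antibodies (500 RU) amine-coupled on a CM-5 chip; TFECDHis concentration series in HBS-EP run over them at 30 μl/min for 180 sec. Surface regenerated with glycine pH 2.0 or acetate pH 3.0; kinetics from double-referenced 1:1 Langmuir fitting.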"}, "[12]": {"biological_target": "T3, TFECDHis (extracellular domain of …)", "test": "competition ELISA, inhibition of FVIIa (100 nM) binding to coated TFECDHis", "procedure": "ELISA plates were coated overnight with TFECDHis (0.5 μg/mL, 100 μL per well). Plates were emptied, blocked with PBS containing 2% (v/v) chicken serum (1 hour, RT), and emptied again. […] Plates were washed and incubated with swine-anti-rabbit IgG-HRP antibody (1:2,500; DAKO). After washing, the immune complexes were visualized using ABTS as a substrate."}, "[13]": {"biological_target": "T1, human tissue factor (TF), …", "test": "FACS on MDA-MB-231 cells (~900.000 TF molecules/cell) [panel MDA-MB-231 cells]"}},
  "data": [
    {"binder": "B1", "values": [
      {"measurement": "EC50", "setting": "[1]", "value": 4.04, "unit": "nM"},
      {"measurement": "EC50", "setting": "[2]", "value": 2.16, "unit": "nM"},
      {"measurement": "% max inhibition of FVIIa induced ERK phosphorylation (A431)", "setting": "[3]", "value": 72, "unit": "%"},
      {"measurement": "IC50, inhibition of FVIIa induced ERK phosphorylation (A431)", "setting": "[3]", "value": 2.42, "unit": "nM"},
      {"measurement": "IC50, inhibition of FVIIa induced IL-8 release (MDA-MB-231)", "setting": "[4]", "value": 13.6, "unit": "nM"},
      {"measurement": "max inhibition of FVIIa induced IL-8 release (MDA-MB-231)", "setting": "[4]", "value": 70.4, "unit": "%"},
      {"measurement": "% max inhibition of FXa generation", "setting": "TF (Innovin) [5]", "value": 18, "unit": "%"},
      {"measurement": "IC50, inhibition of FXa generation", "setting": "TF (Innovin) [5]", "value": 0.09, "unit": "nM"},
      {"measurement": "IC50, inhibition of blood coagulation (TF induced clotting time)", "setting": "TF (Innovin) [6]", "value": 7.6, "unit": "nM"},
      {"measurement": "Max MFI", "setting": "[7]", "value": 2050},
      {"measurement": "EC50", "setting": "[8]", "value": 0.27, "unit": "nM"},
      {"measurement": "EC50", "setting": "[9]", "value": 0.92, "unit": "nM"},
      {"measurement": "Max MFI", "setting": "[10]", "value": 5630},
      {"measurement": "Kd", "setting": "[11]", "value": 4.75, "unit": "nM"},
      {"measurement": "max inhibition", "setting": "[12]", "value": 90, "unit": "%"},
      {"measurement": "EC50 (read off the curve)", "setting": "[13]", "value": "~0.07", "unit": "µg/mL"}
    ]},
    {"binder": "B2", "values": [
      {"measurement": "EC50", "setting": "[1]", "value": 1.86, "unit": "nM"},
      {"measurement": "EC50", "setting": "[2]", "value": 1.58, "unit": "nM"},
      {"measurement": "% max inhibition of FVIIa induced ERK phosphorylation (A431)", "setting": "[3]", "value": 26, "unit": "%"},
      {"measurement": "IC50, inhibition of FVIIa induced ERK phosphorylation (A431)", "setting": "[3]", "value": 9.11, "unit": "nM"},
      {"measurement": "max inhibition of FVIIa induced IL-8 release (MDA-MB-231)", "setting": "[4]", "value": -0.3, "unit": "%"},
      {"measurement": "% max inhibition of FXa generation", "setting": "TF (Innovin) [5]", "value": 31, "unit": "%"},
      {"measurement": "IC50, inhibition of FXa generation", "setting": "TF (Innovin) [5]", "value": 0.05, "unit": "nM"},
      {"measurement": "IC50, inhibition of blood coagulation (TF induced clotting time)", "setting": "TF (Innovin) [6]", "value": 0.6, "unit": "nM"},
      {"measurement": "Max MFI", "setting": "[7]", "value": 2450},
      {"measurement": "EC50", "setting": "[8]", "value": 0.24, "unit": "nM"},
      {"measurement": "EC50", "setting": "[9]", "value": 1.07, "unit": "nM"},
      {"measurement": "Max MFI", "setting": "[10]", "value": 5210},
      {"measurement": "Kd", "setting": "[11]", "value": 2.78, "unit": "nM"},
      {"measurement": "IC50", "setting": "[12]", "value": 19.3, "unit": "nM"},
      {"measurement": "max inhibition", "setting": "[12]", "value": 27, "unit": "%"},
      {"measurement": "EC50 (read off the curve)", "setting": "[13]", "value": "~0.1", "unit": "µg/mL"}
    ]}
  ]
}
